In publication PMC4504706, “Deinococcus radiodurans PriA is a Pseudohelicase”:

T1: PriA (D. radiodurans) (Deinococcus radiodurans R1, UniProt P0DXX8 1-925)
T1 sequence: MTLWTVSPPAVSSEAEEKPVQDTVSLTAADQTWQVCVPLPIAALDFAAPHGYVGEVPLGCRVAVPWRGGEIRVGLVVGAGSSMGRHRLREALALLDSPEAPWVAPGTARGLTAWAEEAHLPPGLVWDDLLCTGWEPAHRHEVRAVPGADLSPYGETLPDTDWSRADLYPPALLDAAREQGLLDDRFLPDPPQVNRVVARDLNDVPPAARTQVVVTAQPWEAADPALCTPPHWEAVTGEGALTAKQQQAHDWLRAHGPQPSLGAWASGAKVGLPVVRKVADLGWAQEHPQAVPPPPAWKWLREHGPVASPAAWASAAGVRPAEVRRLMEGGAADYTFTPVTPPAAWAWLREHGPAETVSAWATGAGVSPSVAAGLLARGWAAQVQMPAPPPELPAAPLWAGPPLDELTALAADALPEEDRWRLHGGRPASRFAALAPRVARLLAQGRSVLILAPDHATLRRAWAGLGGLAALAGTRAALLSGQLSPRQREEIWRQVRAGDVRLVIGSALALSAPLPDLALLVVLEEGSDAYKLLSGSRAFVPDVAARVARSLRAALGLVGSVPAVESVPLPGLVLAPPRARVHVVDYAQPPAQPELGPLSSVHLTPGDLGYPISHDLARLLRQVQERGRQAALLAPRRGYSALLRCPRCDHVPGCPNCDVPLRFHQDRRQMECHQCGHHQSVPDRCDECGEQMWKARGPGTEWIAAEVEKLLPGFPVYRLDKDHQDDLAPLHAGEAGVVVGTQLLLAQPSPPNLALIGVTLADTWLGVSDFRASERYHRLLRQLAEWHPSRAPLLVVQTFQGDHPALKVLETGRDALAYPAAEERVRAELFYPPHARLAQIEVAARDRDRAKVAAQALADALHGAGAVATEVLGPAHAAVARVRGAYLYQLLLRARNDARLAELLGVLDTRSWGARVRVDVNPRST

B1: fully-duplex fork DNA, 25 bp arms (structured_DNA)
DNA 1: GTCGGATCCTCTAGACAGCTCCATGATCACTGGCACTGGTAGAATTCGGC
DNA 2: AACGTCATAGACGATTACATTGCTACATGGAGCTGTCTAGAGGATCCGAC
DNA 3: GCCGAATTCTACCAGTGCCAGTGAT
DNA 4: TAGCAATGTAATCGTCTATGACGTT

How the values were obtained:
PriA (D. radiodurans) = target: T1, PriA (D. radiodurans); experiment: fluorescence anisotropy; 1 mM Mg2+, no ATP listed; apparent Kd (half-bound); 20 mM Tris-HCl pH 8, 15% glycerol, 50 mM NaCl, 1 mM MgCl2, 1 mM 2-mercaptoethanol, 0.1 g/L BSA, 1 nM DNA, 25 C; details: protein: recombinant, tags: N-terminal His6 removed by thrombin, leaving Gly-Ser-His before Met1
PriA (E. coli) = PriA (E. coli) (Escherichia coli K12, UniProt P17888 1-732); experiment: as above; details: protein: recombinant
Chain of PriA (E. coli) (P17888 whole entry): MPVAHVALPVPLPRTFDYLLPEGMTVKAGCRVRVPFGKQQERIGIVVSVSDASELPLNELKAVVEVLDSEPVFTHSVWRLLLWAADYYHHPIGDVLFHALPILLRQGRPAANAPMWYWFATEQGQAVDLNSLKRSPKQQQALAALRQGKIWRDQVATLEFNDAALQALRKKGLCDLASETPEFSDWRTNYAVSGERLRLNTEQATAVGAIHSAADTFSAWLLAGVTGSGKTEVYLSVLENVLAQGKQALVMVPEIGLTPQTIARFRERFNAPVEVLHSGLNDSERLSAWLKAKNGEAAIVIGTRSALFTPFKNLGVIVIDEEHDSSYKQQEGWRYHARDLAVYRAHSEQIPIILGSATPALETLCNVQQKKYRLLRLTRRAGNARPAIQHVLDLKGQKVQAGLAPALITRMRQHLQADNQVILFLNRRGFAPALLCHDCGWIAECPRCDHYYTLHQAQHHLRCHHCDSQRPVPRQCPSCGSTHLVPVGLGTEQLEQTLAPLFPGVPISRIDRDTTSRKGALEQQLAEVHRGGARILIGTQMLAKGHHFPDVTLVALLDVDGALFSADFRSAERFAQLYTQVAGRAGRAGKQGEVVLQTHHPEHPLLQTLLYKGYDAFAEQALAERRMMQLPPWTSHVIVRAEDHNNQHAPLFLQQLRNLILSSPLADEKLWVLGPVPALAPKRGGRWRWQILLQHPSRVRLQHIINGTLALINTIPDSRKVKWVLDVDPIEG

[1] = label: 3' fluorescein, single strand
[2] = label: 3' fluorescein on S8 (nascent lagging strand), three-way fork without gap: S5[1-25]:S6[26-50] parental, S5[26-50]:S7 leading, S6[1-25]:S8 lagging, blunt arms

Binder	Kd (PriA (D. radiodurans); [1]) [nM]	Kd (PriA (E. coli); [1]) [nM]	Kd (PriA (D. radiodurans); [2]) [nM]	Kd (PriA (E. coli); [2]) [nM]
AAGCACAATTACCCACGC (ssDNA) [18-base mixed-sequence ssDNA]	215 ± 17	129 ± 11.9		
B1			108 ± 1.7	52.1 ± 1
